Tests used:
[1] = molecular target: SARS-CoV-2 Nsp15 H235A (SARS-CoV-2); test: cryo-EM structure
[2] = molecular target: SARS-CoV-2 Nsp15 H235A (SARS-CoV-2); test: SEC
[3] = molecular target: SARS-CoV-2 Nsp15 H250A (SARS-CoV-2); test: SEC

Substance	stoichiometry N [1]	stoichiometry N [2]	stoichiometry N [3]
SARS-CoV-2 Nsp15 H235A (enzyme)	6	6	
SARS-CoV-2 Nsp15 H250A (enzyme)			6

From article PMC7840905
